In article PMC6318282, “Completion of the cytosolic post-chorismate phenylalanine biosynthetic pathway in plants” (Nature Communications, 2019) one finds Km and Vmax data, which are given here for four proteins.

Substrate in data set [1]: O=C(O)C(=O)CC1(C(=O)O)C=CC(O)C=C1
The data set is described as follows: purified protein. Format: biochemical, Petunia x hybrida. Conditions: 20 mM Tris-HCl pH 8.0, 1 mM EDTA, 37 °C.

Substrate in data set [2]: C=C(O[C@@H]1C=C(C(=O)O)C=C[C@H]1O)C(=O)O
Put plainly: purified protein. In kind it is biochemical, Petunia x hybrida. The note with it: 20 mM Tris-HCl pH 8.0, 1 mM EDTA, 37 °C.

B1: PhADT3S (Petunia x hybrida) (protein)
chain: MHGAQLRVAYQGVPGAYSEAAAGKAYPKCEAIPCDQFEVAFQAVELWIADRAVLPIENSLGGSIHRNYDLLLRHRLHIVGEVQLPVHHCLLALPGVRKEYLTRVISHPQALAQCELTLTKLGLNVAREAVDDTAGAAEYIAANNLRDTAAIASSRAAELYGLDILEQGIQDDLSNVTRFVMLAREPIIPRTDRPFKTSIVFAHDKGTSVLFKVLSAFAFRNISLTKIESRPHRNRPIRLVDDANVGTAKHFEYMFYVDFEASMADVRAQNALAEVQEFTSFLRVLGSYPMDMTPWSPSRDA
notes: short isoform starting at second in-frame ATG (133 residues downstream of first Met), intact catalytic and ACT domains, about 33 kD, N-terminal 6xHis tag (pET-28a), E. coli, Ni-NTA
As usually defined, the Km is the concentration of substrate that gives half-maximal velocity. As a reminder, the Vmax is the rate approached at saturating substrate. In the case of B1, in the data set “purified protein [1]”, the Km is 433 ± 73 µM and the maximal velocity (Vmax) amounted to 0.113 µmol/min/mg.

B2: PhCM2 (Petunia x hybrida) (protein)
chain: MACGDYDDKLSLDLIRDSLIRQEDTIIFNLIERIKFPINSTLYKKPSSWFPDFTGSLFQYLFQETEALQSKVGRYLSPEENPFFPDNLPASIVPPSKCPPVLHPVAESININEKILDVYLNQLLPLFCTEADEGNYATTAACDIQLLQAISRRIHYGKFVAEVKFRDCSDEYTPLILAQQDRDALMKLLTFEVVEEMVKKRVAKKAMIFGQEVTLVDNAKEVKCKVDPLLVSRLYDEWIMPLTKHVQVEYLLRRLDQNKLTSI
notes: coding region, N-terminal 6xHis tag (pET-28a), E. coli, Ni-NTA
For B2, in the data set “purified protein [2]” (reaction volume 225 μl), the Km worked out at 8.6 ± 1.2 µM and the Vmax turned out to be 114 µmol/min/mg.

B3: PhADT3L (Petunia x hybrida) (protein)
chain: AGAAAVNTGVVNTPASNNTAGHVGASRTDWQSSCAILASKVVSQQQDTEKSGGAGNITAVNGHKILNLDLLPVESNRAKPLTITDLSPAPMHGAQLRVAYQGVPGAYSEAAAGKAYPKCEAIPCDQFEVAFQAVELWIADRAVLPIENSLGGSIHRNYDLLLRHRLHIVGEVQLPVHHCLLALPGVRKEYLTRVISHPQALAQCELTLTKLGLNVAREAVDDTAGAAEYIAANNLRDTAAIASSRAAELYGLDILEQGIQDDLSNVTRFVMLAREPIIPRTDRPFKTSIVFAHDKGTSVLFKVLSAFAFRNISLTKIESRPHRNRPIRLVDDANVGTAKHFEYMFYVDFEASMADVRAQNALAEVQEFTSFLRVLGSYPMDMTPWSPSRDA
B3: in the data set “purified protein [1]”, the Michaelis-Menten constant (Km) is 358 ± 32 µM and the Vmax is 0.125 µmol/min/mg.

B4: PhCM1 (Petunia x hybrida) (protein)
chain: QASATSLGLGNKNRVDETESYTLDGIRHSLIRQEDSIIFSLVERAQYCYNAETYDPDVFAMDGFHGSLVEYIVRETEKLHATVGRYKSPDEHPFFPKVLPEPVLPPMQYPKVLHPIADSININVKIWEMYFENLLPRLVKEGDDGNYGSTAVCDTICVQALSKRIHYGKFVAEAKYRASPEVYNAAIRAQDRNGLMDLLTYPAVEEAIKRRVEIKTRTYGQELHINGPENGGDPVYKIKPSLVAELYGDWIMPLTKEVQVQYLLRRLD
Regarding B4, in “purified protein [2]”, the Km was found to be 174 ± 27 µM and the maximum rate (Vmax) amounted to 45.7 µmol/min/mg.
